# Reference: article PMC11095456
# Target: EVI1 MAPPIT bait, wild type
# Experiment: MAPPIT
# Details: HEK293T cells; +Epo; cotransfected with EVI1; parent: est. 29; read off a plot; scale: % of maximum induction
row,response,Substance
1,29,"CTBP2 MAPPIT prey, wild type (from UniProt P56545) A58E"
2,10,"CTBP2 MAPPIT prey, wild type (from UniProt P56545) A58E; V72R"
3,11,"CTBP2 MAPPIT prey, wild type (from UniProt P56545) V72R"

# Target: CTBP2 MAPPIT prey, wild type (UniProt P56545)
# Experiment: MAPPIT
# Details: HEK293T cells; +Epo; cotransfected with CTBP2; parent: est. 32; read off a plot; scale: % of maximum induction
row,response,Substance
1,3,"EVI1 MAPPIT bait, wild type PFDLT SWAP"
2,5,"EVI1 MAPPIT bait, wild type PLDLS SWAP"

# More lines, now with the values behind:
row,Substance,response
1,"EVI1 MAPPIT bait, wild type PFDLT>PFAST",30
2,"EVI1 MAPPIT bait, wild type PLDLS>PLASS",3
